# According to the supplement of paper PMC9112550, “Optimization of the antimicrobial peptide Bac7 by deep mutational scanning” (BMC Biology, 2022):
# Tested on: Escherichia coli TOP10
# Test: shrunken log2 fold change of peptide-encoding DNA abundance (4.5 h post-induction vs induction); higher = less antimicrobial activity (less host growth inhibition)
# Conditions: time post-induction: 4.5 h; library: site-saturation at positions 5, 18, 19, 20
# 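Also: peptides expressed intracellularly from a pBAD plasmid library in pooled LB shake-flask culture, induced with 0.3% L-arabinose, DNA abundance read by NGS, three biological replicates, DESeq2 with apeglm shrinkage.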
row,Sequence,shrunken log2 fold change
1,RRIRMRPPRLPRPRPRPCWFPRP,-0.0997
2,RRIRMRPPRLPRPRPRPCWPPRP,0.218
3,RRIRMRPPRLPRPRPRPCWRPRP,0.14
4,RRIRMRPPRLPRPRPRPCYEPRP,0.0712
5,RRIRMRPPRLPRPRPRPDCRPRP,0.134
6,RRIRMRPPRLPRPRPRPDGCPRP,2.12
7,RRIRMRPPRLPRPRPRPDGRPRP,-0.00101
8,RRIRMRPPRLPRPRPRPDITPRP,2.12
9,RRIRMRPPRLPRPRPRPDLVPRP,1.01
10,RRIRMRPPRLPRPRPRPDMMPRP,0.187
11,RRIRMRPPRLPRPRPRPDRFPRP,0.207
12,RRIRMRPPRLPRPRPRPDSHPRP,-0.025
13,RRIRMRPPRLPRPRPRPDSPPRP,0.0492
14,RRIRMRPPRLPRPRPRPDVPPRP,0.323
15,RRIRMRPPRLPRPRPRPDWQPRP,0.198
16,RRIRMRPPRLPRPRPRPEAAPRP,3.45
17,RRIRMRPPRLPRPRPRPEAYPRP,0.036
18,RRIRMRPPRLPRPRPRPECGPRP,2.7
19,RRIRMRPPRLPRPRPRPEEDPRP,0.0356
20,RRIRMRPPRLPRPRPRPEGYPRP,2.64
21,RRIRMRPPRLPRPRPRPEHCPRP,0.429
22,RRIRMRPPRLPRPRPRPEHWPRP,-0.00593
23,RRIRMRPPRLPRPRPRPEIAPRP,0.0315
24,RRIRMRPPRLPRPRPRPEIVPRP,0.574
25,RRIRMRPPRLPRPRPRPEKDPRP,2.62

row,Sequence,shrunken log2 fold change
1,RRIRMRPPRLPRPRPRPEKFPRP,-0.000921
2,RRIRMRPPRLPRPRPRPEKHPRP,0.921
3,RRIRMRPPRLPRPRPRPELTPRP,3.52
4,RRIRMRPPRLPRPRPRPEMCPRP,3.01
5,RRIRMRPPRLPRPRPRPENSPRP,2.07
6,RRIRMRPPRLPRPRPRPEPHPRP,1.43
7,RRIRMRPPRLPRPRPRPEPLPRP,0.277
8,RRIRMRPPRLPRPRPRPEPMPRP,0.386
9,RRIRMRPPRLPRPRPRPEPPPRP,1.76
10,RRIRMRPPRLPRPRPRPEQEPRP,0.033
11,RRIRMRPPRLPRPRPRPERYPRP,0.362
12,RRIRMRPPRLPRPRPRPETAPRP,4.06
13,RRIRMRPPRLPRPRPRPETGPRP,0.321
14,RRIRMRPPRLPRPRPRPETKPRP,0.253
15,RRIRMRPPRLPRPRPRPEVCPRP,0.0476
16,RRIRMRPPRLPRPRPRPEVHPRP,-0.0544
17,RRIRMRPPRLPRPRPRPEWHPRP,0.161
18,RRIRMRPPRLPRPRPRPEYYPRP,-0.218
19,RRIRMRPPRLPRPRPRPFADPRP,2.11
20,RRIRMRPPRLPRPRPRPFAEPRP,0.625
21,RRIRMRPPRLPRPRPRPFAMPRP,0.171
22,RRIRMRPPRLPRPRPRPFDNPRP,0.0191
23,RRIRMRPPRLPRPRPRPFEEPRP,0.0197
24,RRIRMRPPRLPRPRPRPFEMPRP,0.0316
25,RRIRMRPPRLPRPRPRPFFTPRP,-0.054

row,Sequence,shrunken log2 fold change
1,RRIRMRPPRLPRPRPRPFGMPRP,-0.0241
2,RRIRMRPPRLPRPRPRPFLKPRP,-0.636
3,RRIRMRPPRLPRPRPRPFMDPRP,-0.119
4,RRIRMRPPRLPRPRPRPFMEPRP,-0.096
5,RRIRMRPPRLPRPRPRPFPKPRP,0.385
6,RRIRMRPPRLPRPRPRPFRCPRP,-0.0869
7,RRIRMRPPRLPRPRPRPFRDPRP,0.00601
8,RRIRMRPPRLPRPRPRPFRMPRP,0.00199
9,RRIRMRPPRLPRPRPRPFWAPRP,0.509
10,RRIRMRPPRLPRPRPRPFWMPRP,0.154
11,RRIRMRPPRLPRPRPRPFYNPRP,-0.141
12,RRIRMRPPRLPRPRPRPFYSPRP,-0.0137
13,RRIRMRPPRLPRPRPRPGAYPRP,0.0666
14,RRIRMRPPRLPRPRPRPGCAPRP,1.09
15,RRIRMRPPRLPRPRPRPGDFPRP,0.215
16,RRIRMRPPRLPRPRPRPGGSPRP,1.07
17,RRIRMRPPRLPRPRPRPGHNPRP,0.231
18,RRIRMRPPRLPRPRPRPGICPRP,0.507
19,RRIRMRPPRLPRPRPRPGITPRP,0.133
20,RRIRMRPPRLPRPRPRPGKHPRP,4.3
21,RRIRMRPPRLPRPRPRPGKRPRP,0.078
22,RRIRMRPPRLPRPRPRPGLEPRP,1.61
23,RRIRMRPPRLPRPRPRPGLNPRP,0.223
24,RRIRMRPPRLPRPRPRPGLVPRP,0.294
25,RRIRMRPPRLPRPRPRPGNIPRP,-0.115

row,Sequence,shrunken log2 fold change
1,RRIRMRPPRLPRPRPRPGNWPRP,0.561
2,RRIRMRPPRLPRPRPRPGQFPRP,0.0853
3,RRIRMRPPRLPRPRPRPGSLPRP,0.432
4,RRIRMRPPRLPRPRPRPGTAPRP,0.793
5,RRIRMRPPRLPRPRPRPGTEPRP,0.562
6,RRIRMRPPRLPRPRPRPGTMPRP,-0.115
7,RRIRMRPPRLPRPRPRPGTWPRP,0.043
8,RRIRMRPPRLPRPRPRPGWGPRP,1.2
9,RRIRMRPPRLPRPRPRPGYAPRP,0.341
10,RRIRMRPPRLPRPRPRPGYGPRP,0.148
11,RRIRMRPPRLPRPRPRPHCLPRP,-0.0601
12,RRIRMRPPRLPRPRPRPHCRPRP,0.274
13,RRIRMRPPRLPRPRPRPHEAPRP,0.0628
14,RRIRMRPPRLPRPRPRPHFIPRP,0.0859
15,RRIRMRPPRLPRPRPRPHFMPRP,-0.127
16,RRIRMRPPRLPRPRPRPHHNPRP,-0.533
17,RRIRMRPPRLPRPRPRPHHTPRP,-0.263
18,RRIRMRPPRLPRPRPRPHKGPRP,0.034
19,RRIRMRPPRLPRPRPRPHKKPRP,0.0772
20,RRIRMRPPRLPRPRPRPHKSPRP,0.223
21,RRIRMRPPRLPRPRPRPHLWPRP,0.374
22,RRIRMRPPRLPRPRPRPHMDPRP,-0.604
23,RRIRMRPPRLPRPRPRPHMVPRP,-0.0116
24,RRIRMRPPRLPRPRPRPHNMPRP,-0.243
25,RRIRMRPPRLPRPRPRPHNRPRP,-0.172

row,Sequence,shrunken log2 fold change
1,RRIRMRPPRLPRPRPRPHNWPRP,0.249
2,RRIRMRPPRLPRPRPRPHSTPRP,0.126
3,RRIRMRPPRLPRPRPRPHYRPRP,-0.223
4,RRIRMRPPRLPRPRPRPIAQPRP,0.726
5,RRIRMRPPRLPRPRPRPIDEPRP,-0.0525
6,RRIRMRPPRLPRPRPRPIDHPRP,0.0383
7,RRIRMRPPRLPRPRPRPIEAPRP,0.111
8,RRIRMRPPRLPRPRPRPIESPRP,0.000778
9,RRIRMRPPRLPRPRPRPIGEPRP,0.0433
10,RRIRMRPPRLPRPRPRPIIVPRP,-0.0119
11,RRIRMRPPRLPRPRPRPIKEPRP,-0.00194
12,RRIRMRPPRLPRPRPRPIKTPRP,-0.0802
13,RRIRMRPPRLPRPRPRPIMHPRP,-0.128
14,RRIRMRPPRLPRPRPRPIMPPRP,0.0288
15,RRIRMRPPRLPRPRPRPINSPRP,-0.142
16,RRIRMRPPRLPRPRPRPINVPRP,-0.0528
17,RRIRMRPPRLPRPRPRPIQRPRP,0.544
18,RRIRMRPPRLPRPRPRPIQYPRP,0.0408
19,RRIRMRPPRLPRPRPRPIRLPRP,0.0373
20,RRIRMRPPRLPRPRPRPISHPRP,-0.018
21,RRIRMRPPRLPRPRPRPITEPRP,-0.012
22,RRIRMRPPRLPRPRPRPIYTPRP,-0.257
23,RRIRMRPPRLPRPRPRPIYVPRP,-0.165
24,RRIRMRPPRLPRPRPRPKAAPRP,3.33
25,RRIRMRPPRLPRPRPRPKAPPRP,1.42

row,Sequence,shrunken log2 fold change
1,RRIRMRPPRLPRPRPRPKAYPRP,0.0225
2,RRIRMRPPRLPRPRPRPKERPRP,0.0219
3,RRIRMRPPRLPRPRPRPKGIPRP,0.0647
4,RRIRMRPPRLPRPRPRPKHNPRP,0.131
5,RRIRMRPPRLPRPRPRPKLAPRP,2.87
6,RRIRMRPPRLPRPRPRPKLQPRP,0.273
7,RRIRMRPPRLPRPRPRPKMEPRP,1.45
8,RRIRMRPPRLPRPRPRPKMRPRP,1.21
9,RRIRMRPPRLPRPRPRPKNCPRP,0.0597
10,RRIRMRPPRLPRPRPRPKNLPRP,-0.102
11,RRIRMRPPRLPRPRPRPKPLPRP,0.603
12,RRIRMRPPRLPRPRPRPKPQPRP,1.41
13,RRIRMRPPRLPRPRPRPKRMPRP,1.06
14,RRIRMRPPRLPRPRPRPKRVPRP,0.0291
15,RRIRMRPPRLPRPRPRPKSCPRP,0.839
16,RRIRMRPPRLPRPRPRPKWLPRP,0.612
17,RRIRMRPPRLPRPRPRPKWPPRP,1.18
18,RRIRMRPPRLPRPRPRPLACPRP,0.244
19,RRIRMRPPRLPRPRPRPLAKPRP,0.791
20,RRIRMRPPRLPRPRPRPLAVPRP,0.328
21,RRIRMRPPRLPRPRPRPLCAPRP,1.24
22,RRIRMRPPRLPRPRPRPLDTPRP,-0.0606
23,RRIRMRPPRLPRPRPRPLEEPRP,3.36
24,RRIRMRPPRLPRPRPRPLEPPRP,0.261
25,RRIRMRPPRLPRPRPRPLFDPRP,0.201
